Results on two substances are retold here after paper PMC10515946.

What is called stoichiometry N is a count of units in the complex or per binding partner.

The target of experiment [1] is 1059 SOSIP (TPA-1059 SOSIP, soluble Env trimer of the transmitted/founder HIV-1 strain 1059), purifi (HIV-1 strain 1059). Description: cryo-EM structure.
Experiment [2] has as its target BG505 SOSIP (soluble Env trimer of HIV-1 BG505) (HIV-1 strain BG505). As to the kind of experiment: cryo-EM structure.

Substance “1059 SOSIP (TPA-1059 SOSIP, soluble Env trimer of the transmitted/founder HIV-1 strain 1059), purifi (complex)” came in with a stoichiometry N in experiment [1] of 3.
Regarding “BG505 SOSIP (soluble Env trimer of HIV-1 BG505) (complex)”, the stoichiometry N in experiment [2] is 3.
